T1: human serpinB6 (human, UniProt P35237 1-376)
T1 construct: Luminex antigen captured from a 293 cell lysate; not shown: V5-His tag of the pcDNA3.1 Directional V5-His-TOPO vector
T1 sequence (looked up): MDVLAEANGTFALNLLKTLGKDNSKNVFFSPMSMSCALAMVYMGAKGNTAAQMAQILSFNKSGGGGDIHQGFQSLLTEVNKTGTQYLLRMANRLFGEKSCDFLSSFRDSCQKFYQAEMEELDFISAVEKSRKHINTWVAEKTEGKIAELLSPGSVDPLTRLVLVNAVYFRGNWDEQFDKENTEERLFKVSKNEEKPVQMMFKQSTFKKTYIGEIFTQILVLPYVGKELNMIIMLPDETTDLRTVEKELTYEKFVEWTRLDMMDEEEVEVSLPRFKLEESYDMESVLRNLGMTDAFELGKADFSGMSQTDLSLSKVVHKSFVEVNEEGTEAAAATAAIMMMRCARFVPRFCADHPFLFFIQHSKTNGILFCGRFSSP

T2: human serpinB7 (human, UniProt O75635 1-380)
T2 construct: Luminex antigen captured from a 293 cell lysate; not shown: V5-His tag of the pcDNA3.1 Directional V5-His-TOPO vector
T2 sequence (looked up): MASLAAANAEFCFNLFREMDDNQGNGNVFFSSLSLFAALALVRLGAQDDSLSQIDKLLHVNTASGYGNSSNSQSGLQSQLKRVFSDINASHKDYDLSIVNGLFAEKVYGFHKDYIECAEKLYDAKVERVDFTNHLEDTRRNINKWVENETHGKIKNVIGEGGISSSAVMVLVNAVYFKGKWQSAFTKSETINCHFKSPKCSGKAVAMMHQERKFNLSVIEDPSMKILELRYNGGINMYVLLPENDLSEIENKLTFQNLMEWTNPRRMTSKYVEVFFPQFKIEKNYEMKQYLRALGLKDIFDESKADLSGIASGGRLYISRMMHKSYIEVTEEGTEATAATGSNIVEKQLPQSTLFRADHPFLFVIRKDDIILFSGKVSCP

B1: recombinant fully human anti-serpinB13 antibody Clone 1 (antibody, human IgG1, kappa, V domains shown)
VH: QVQLQESGGGVVQPGRSLRLSCAASGFTFSSYGMHWVRQAPGKGLEWVAVISYDGSNKYYADSVKGRFTISRDNSKNTLYLQMNSLRAEDTAVYYCARDLGAVIAVAGTSTPYNWFDPWGQGTLVTVSS
VL: DVVMTQSPLSLPVTPGEPASISCRSRQSLLHSNGHNYLGWYLQKPGQSPQLLIYLASIRASGIPDRFSGSGSGTDFTLKISRVEAEDVGVYYCMQALQTPYTFGQGTKLEIKR
notes: also called mAb1; mAbs1
B2: recombinant fully human anti-serpinB13 antibody Clone 2 (antibody, human IgG1, kappa, V domains shown)
VH: QMQLVQSGGGVVRPGGSLRLSCAASGFTFDDYGMSWVRQAPGKGLEWVSGINWNGGSTGYADSVKGRFTISRDNAKNSLYLQMNSLRAEDTALYYCARESSMTTVTTYLLREVGVGLDFDYWGQGTLVTVSS
VL: ETTLTQSPGTLSLSPGERATLSCRASQTVSGSYLAWYQQKPGQPPRLLIYGASSRATGIPDRFSGSGSGTDFTLTISRLEPEDFAVYYCQDYGSSRTFGQGTKVELKR
notes: also called mAb2; CLONE2-H(m1) / CLONE2-L(m1)
B3: recombinant fully human anti-serpinB13 antibody Clone 3 (antibody, human IgG1, kappa, V domains shown)
VH: QVQLQQWGAGLLKPSETLSLTCAVYGGSFSGYYWSWIRQPPGKGLEWIGEINHSGSTNYNPSLKSRVTISVDTSKNQFSLKLSSVTAADTAVYYCARRYCSGGSCYLVGTGSELDYWGQGTLVTVSS
VL: DIQMTQSPSTLSASVGDRVTITCRASQSISSWLAWYQQKPGKAPKLLIYKASSLEIGVPSRFSGSGYGTEFTLTISSLQPDDFATYYCLQYSTHSTFGQGTRVEIKR
notes: also called mAb3; CLONE3-H(m1) / CLONE3-L(m1)

The binders below were run against T1, human serpinB6 (assay: Luminex bead assay, beads coated with human serpinB6, background (Gfp and Scgn beads) subtracted).
Procedure: (§1) The latter was determined as the average antibody binding to Luminex beads coated with Gfp and Scgn control antigens. Similar data were obtained for antigen binding of Fab fragments of these antibodies (data not shown).
(§2) Luminex assay. Luminex-based technology was used to measure serpinB13 AA in human samples. Initially, the Luminex beads were precoated with serpinB13, Gfp and Scgn, using precleared lysates of 293 cells that had been transfected with individual cDNAs. Biotinylated mouse anti-human K and 2 chain mAbs (BD Biosciences) (dilution 1:300) and streptavidin (Invitrogen) (dilution 1:200) were used as secondary reagents to measure human serum binding activity to individual antigens. The data were expressed as fluorescence intensity (F.I.) due to serum binding activity in the presence of beads precoated with serpinB13 and after subtracting the average F.I. due to serum binding activity in the presence of beads precoated with control proteins, Gfp and Scgn (e.g. F.I.^B13-[F.I.^GFP+F.I.^Segn]/2). The samples were evaluated based on the level of F.I. and the degree of inhibition of binding to serpin-B13 coated beads with soluble serpinB13 (2.5 μg/mL), compared with the bovine serum albumin (BSA). […] All samples were run blind on three independent occasions. Subjects with serum samples that produced a positive results three times were considered positive. Subjects with serum samples that produced a negative result on at least one occasion were considered negative.
(§3) To determine whether anti-serpin activity is specific, binding of three human recombinant antibodies to serpinB13 was examined for potential cross-reactivity with other clade B serpins. Binding to the beads conjugated with Gfp and Scgn was used to subtract the background and the assay was developed using the same reagents as those described above for measuring serpinB13 AA in serum samples.

| Binder | binding result |
| --- | --- |
| B1 | no binding (tested: 1.0 µg/mL) |
| B2 | no binding (tested: 1.0 µg/mL) |
| B3 | no binding (tested: 1.0 µg/mL) |

The binders below were run against T2, human serpinB7 (assay: Luminex bead assay, beads coated with human serpinB7, background (Gfp and Scgn beads) subtracted).
Procedure: as §1, §2, §3

| Binder | binding result |
| --- | --- |
| B1 | no binding (tested: 1.0 µg/mL) |
| B2 | no binding (tested: 1.0 µg/mL) |
| B3 | no binding (tested: 1.0 µg/mL) |

— US20260116996A1 (REGENTS OF THE UNIVERSITY OF MINNESOTA, published 2026)
